{"source": "paper doi:10.1101/2022.01.25.477707", "about": "(bioRxiv, 2022)", "binders": {"B1": {"name": "Gemin5 endogenous protein (natural protein, human (endogenous in HEK293), UniProt Q8TEQ6 1-1508, looked up)", "chain": "MGQEPRTLPPSPNWYCARCSDAVPGGLFGFAARTSVFLVRVGPGAGESPGTPPFRVIGELVGHTERVSGFTFSHHPGQYNLCATSSDDGTVKIWDVETKTVVTEHALHQHTISTLHWSPRVKDLIVSGDEKGVVFCYWFNRNDSQHLFIEPRTIFCLTCSPHHEDLVAIGYKDGIVVIIDISKKGEVIHRLRGHDDEIHSIAWCPLPGEDCLSINQEETSEEAEITNGNAVAQAPVTKGCYLATGSKDQTIRIWSCSRGRGVMILKLPFLKRRGGGIDPTVKERLWLTLHWPSNQPTQLVSSCFGGELLQWDLTQSWRRKYTLFSASSEGQNHSRIVFNLCPLQTEDDKQLLLSTSMDRDVKCWDIATLECSWTLPSLGGFAYSLAFSSVDIGSLAIGVGDGMIRVWNTLSIKNNYDVKNFWQGVKSKVTALCWHPTKEGCLAFGTDDGKVGLYDTYSNKPPQISSTYHKKTVYTLAWGPPVPPMSLGGEGDRPSLALYSCGGEGIVLQHNPWKLSGEAFDINKLIRDTNSIKYKLPVHTEISWKADGKIMALGNEDGSIEIFQIPNLKLICTIQQHHKLVNTISWHHEHGSQPELSYLMASGSNNAVIYVHNLKTVIESSPESPVTITEPYRTLSGHTAKITSVAWSPHHDGRLVSASYDGTAQVWDALREEPLCNFRGHRGRLLCVAWSPLDPDCIYSGADDFCVHKWLTSMQDHSRPPQGKKSIELEKKRLSQPKAKPKKKKKPTLRTPVKLESIDGNEEESMKENSGPVENGVSDQEGEEQAREPELPCGLAPAVSREPVICTPVSSGFEKSKVTINNKVILLKKEPPKEKPETLIKKRKARSLLPLSTSLDHRSKEELHQDCLVLATAKHSRELNEDVSADVEERFHLGLFTDRATLYRMIDIEGKGHLENGHPELFHQLMLWKGDLKGVLQTAAERGELTDNLVAMAPAAGYHVWLWAVEAFAKQLCFQDQYVKAASHLLSIHKVYEAVELLKSNHFYREAIAIAKARLRPEDPVLKDLYLSWGTVLERDGHYAVAAKCYLGATCAYDAAKVLAKKGDAASLRTAAELAAIVGEDELSASLALRCAQELLLANNWVGAQEALQLHESLQGQRLVFCLLELLSRHLEEKQLSEGKSSSSYHTWNTGTEGPFVERVTAVWKSIFSLDTPEQYQEAFQKLQNIKYPSATNNTPAKQLLLHICHDLTLAVLSQQMASWDEAVQALLRAVVRSYDSGSFTIMQEVYSAFLPDGCDHLRDKLGDHQSPATPAFKSLEAFFLYGRLYEFWWSLSRPCPNSSVWVRAGHRTLSVEPSQQLDTASTEETDPETSQPEPNRPSELDLRLTEEGERMLSTFKELFSEKHASLQNSQRTVAEVQETLAEMIRQHQKSQLCKSTANGPDKNEPEVEAEQPLCSSQSQCKEEKNEPLSLPELTKRLTEANQRMAKFPESIKAWPFPDVLECCLVLLLIRSHFPGCLAQEMQQQAQELLQKYGNTKTYRRHCQTFCM"}, "B2": {"name": "Gemin5 TPR-like dimerization domain R1016C (domain or fragment, human, UniProt Q8TEQ6 845-1097, looked up)", "chain": "ARSLLPLSTSLDHRSKEELHQDCLVLATAKHSRELNEDVSADVEERFHLGLFTDRATLYRMIDIEGKGHLENGHPELFHQLMLWKGDLKGVLQTAAERGELTDNLVAMAPAAGYHVWLWAVEAFAKQLCFQDQYVKAASHLLSIHKVYEAVELLKSNHFYREAIAIAKARLCPEDPVLKDLYLSWGTVLERDGHYAVAAKCYLGATCAYDAAKVLAKKGDAASLRTAAELAAIVGEDELSASLALRCAQELLL"}, "B3": {"name": "Gemin5 TPR-like dimerization domain D1019E (domain or fragment, human, UniProt Q8TEQ6 845-1097, looked up)", "chain": "B2 chain with C172R, D175E"}}, "key": {"[1]": {"molecular_target": "T1, G5_(845-1508)-A951E-TAP (human), Q8TEQ6", "T1 chain": "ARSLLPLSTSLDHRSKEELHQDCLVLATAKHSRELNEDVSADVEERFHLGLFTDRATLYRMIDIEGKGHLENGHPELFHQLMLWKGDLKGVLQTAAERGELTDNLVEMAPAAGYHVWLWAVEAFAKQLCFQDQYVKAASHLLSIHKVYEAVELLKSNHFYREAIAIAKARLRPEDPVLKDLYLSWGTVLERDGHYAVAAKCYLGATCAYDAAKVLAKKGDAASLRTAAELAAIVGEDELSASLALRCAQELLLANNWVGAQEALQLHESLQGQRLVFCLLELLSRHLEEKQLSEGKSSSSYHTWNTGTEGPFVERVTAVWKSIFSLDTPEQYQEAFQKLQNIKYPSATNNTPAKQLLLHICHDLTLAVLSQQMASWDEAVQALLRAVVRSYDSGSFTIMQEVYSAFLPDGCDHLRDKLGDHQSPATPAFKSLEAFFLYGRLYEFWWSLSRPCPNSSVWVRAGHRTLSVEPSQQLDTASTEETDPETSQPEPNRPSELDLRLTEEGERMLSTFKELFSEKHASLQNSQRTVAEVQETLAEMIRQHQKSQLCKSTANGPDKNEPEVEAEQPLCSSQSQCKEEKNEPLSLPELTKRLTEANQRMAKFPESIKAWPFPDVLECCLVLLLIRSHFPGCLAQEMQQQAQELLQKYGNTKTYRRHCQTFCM", "test": "co-IP", "conditions": "remark: other sources report otherwise"}, "G5_(845-1508)-D1019E-TAP": {"molecular_target": "T2, G5_(845-1508)-D1019E-TAP (human, UniProt Q8TEQ6 845-1508, D1019E)", "T2 sequence (looked up)": "T1 chain with E107A, D175E", "test": "co-IP"}, "G5_(845-1508)-R1016C-TAP": {"molecular_target": "T3, G5_(845-1508)-R1016C-TAP (human, UniProt Q8TEQ6 845-1508, R1016C)", "T3 sequence (looked up)": "T1 chain with E107A, R172C", "test": "co-IP"}, "SEC-MALS": {"molecular_target": "the molecule itself", "test": "SEC-MALS"}}, "note": "Substitutions are numbered along the chain they refer to. Numbers in names are those of the source.", "data": [{"binder": "B1", "values": [{"measurement": "fold by which the recruitment of Gemin5 by WT exceeds that by this mutant", "setting": "[1]", "value": 10, "unit": "fold"}, {"measurement": "intensity of co-IP relative to the WT protein", "setting": "G5_(845-1508)-D1019E-TAP", "value": "62 % relative to the WT protein"}, {"measurement": "intensity of co-IP relative to the WT protein", "setting": "G5_(845-1508)-R1016C-TAP", "value": "58 % relative to the WT protein"}]}, {"binder": "B2", "values": [{"measurement": "stoichiometry N", "setting": "SEC-MALS", "value": 2}]}, {"binder": "B3", "values": [{"measurement": "stoichiometry N", "setting": "SEC-MALS", "value": 2}]}]}
